Data reported in US20230136228A1 (LAMKAP BIO ALPHA, published 2023).
Residue numbers refer to the chain shown, from its start. Numbers in names are those of the source.

T1: human CEACAM1 (human, UniProt P13688 35-526)
T1 construct: whole, on cells
T1 sequence (looked up): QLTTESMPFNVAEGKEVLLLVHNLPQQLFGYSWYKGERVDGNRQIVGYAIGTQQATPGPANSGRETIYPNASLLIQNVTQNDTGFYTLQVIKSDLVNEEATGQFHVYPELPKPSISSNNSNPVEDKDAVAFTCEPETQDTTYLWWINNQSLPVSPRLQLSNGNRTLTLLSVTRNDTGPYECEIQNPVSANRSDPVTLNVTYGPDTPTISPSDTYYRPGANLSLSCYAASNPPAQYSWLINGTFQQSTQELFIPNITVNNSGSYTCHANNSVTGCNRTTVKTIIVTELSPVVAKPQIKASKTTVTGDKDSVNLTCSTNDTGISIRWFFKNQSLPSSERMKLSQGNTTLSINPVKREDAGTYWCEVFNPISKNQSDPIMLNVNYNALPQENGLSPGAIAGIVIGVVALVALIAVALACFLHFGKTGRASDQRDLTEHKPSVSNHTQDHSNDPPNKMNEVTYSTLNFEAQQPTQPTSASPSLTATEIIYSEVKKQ

T2: human CEACAM6 (human, UniProt P40199 35-320)
T2 construct: whole, on cells; also called CD66c
T2 sequence (looked up): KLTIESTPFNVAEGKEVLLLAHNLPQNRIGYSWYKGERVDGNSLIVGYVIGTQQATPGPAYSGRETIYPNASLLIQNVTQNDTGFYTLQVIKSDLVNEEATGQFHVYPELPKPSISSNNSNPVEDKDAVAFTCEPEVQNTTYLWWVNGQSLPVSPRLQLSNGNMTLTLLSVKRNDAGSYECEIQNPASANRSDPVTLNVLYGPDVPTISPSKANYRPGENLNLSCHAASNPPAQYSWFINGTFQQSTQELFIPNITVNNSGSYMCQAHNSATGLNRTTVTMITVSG

T3: human CEACAM8 (human, UniProt P31997 35-320)
T3 construct: whole, on cells
T3 sequence (looked up): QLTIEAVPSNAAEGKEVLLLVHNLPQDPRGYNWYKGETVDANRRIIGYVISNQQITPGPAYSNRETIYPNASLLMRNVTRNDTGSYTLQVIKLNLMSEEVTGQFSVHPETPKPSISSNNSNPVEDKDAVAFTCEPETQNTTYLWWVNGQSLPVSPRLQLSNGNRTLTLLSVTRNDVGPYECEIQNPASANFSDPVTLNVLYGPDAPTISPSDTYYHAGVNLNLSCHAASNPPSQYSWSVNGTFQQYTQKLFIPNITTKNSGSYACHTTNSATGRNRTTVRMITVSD

B1: AB17L3-1/N (bispecific antibody, human IgG1, kappa, lambda, L234A L235A)
heavy: EVQLVESGGGLVQPGGSLKLSCAASGFTFNTYAMNWVRQAPGKGLEWVGRIRSKYNNYATYYADSVKDRFTISRDDSKNTAYLQMNSLKTEDTAVYYCVRHGNFGNSYVSWFAYWGQGTLVTVSSASTKGPSVFPLAPSSKSTSGGTAALGCLVKDYFPEPVTVSWNSGALTSGVHTFPAVLQSSGLYSLSSVVTVPSSSLGTQTYICNVNHKPSNTKVDKRVEPKSCDKTHTCPPCPAPEAAGGPSVFLFPPKPKDTLMISRTPEVTCVVVDVSHEDPEVKFNWYVDGVEVHNAKTKPREEQYNSTYRVVSVLTVLHQDWLNGKEYKCKVSNKALAAPIEKTISKAKGQPREPQVYTLPPSREEMTKNQVSLTCLVKGFYPSDIAVEWESNGQPENNYKTTPPVLDSDGSFFLYSKLTVDKSRWQQGNVFSCSVMHEALHNHYTQKSLSLSPG
light 1: EIVLTQSPATLSLSPGERATLSCRASQSVNSNLNWYQQKPGQAPRLLIYHGSNRATGIPARFSGSGSGTDFTLTISSLEPEDFAVYYCQQFDYFKEHNTFGQGTKVEIKRTVAAPSVFIFPPSDEQLKSGTASVVCLLNNFYPREAKVQWKVDNALQSGNSQESVTEQDSKDSTYSLSSTLTLSKADYEKHKVYACEVTHQGLSSPVTKSFNRGEC
light 2: QTVVTQEPSLTVSPGGTVTLTCRSSTGAVTTSNYANWFQQKPGQAPRGLIGGTNKRAPGTPARFSGSLLGGKAALTLSGAQPEDEAEYYCALWYKQRWVFGGGTKLTVLGQPKAAPSVTLFPPSSEELQANKATLVCLISDFYPGAVTVAWKADSSPVKAGVETTTPSKQSNNKYAASSYLSLTPEQWKSHRSYSCQVTHEGSTVEKTVAPTECS
notes: Kappa-lambda body, lead optimization wave 1
B2: AB1L3-1/N (bispecific antibody, human IgG1, kappa, lambda, L234A L235A)
heavy: B1 heavy
light 1: B1 light 1 with Y93L, F94R, K95H
light 2: B1 light 2
notes: Kappa-lambda body: common heavy chain (hIgG1 L234A+L235A+P329A), kappa CEA light chain AB1, lambda CD3 light chain L3-1 (1A4); also called parental KL bispecific antibody
B3: AB72L3-1/N (bispecific antibody, human IgG1, kappa, lambda, L234A L235A)
heavy: B1 heavy
light 1: B1 light 1 with G51S, S52T, A55P, T56R, H97Y
light 2: B1 light 2
notes: Kappa-lambda body, lead optimization wave 2
B4: AB71L3-1/N (bispecific antibody, human IgG1, kappa, lambda, L234A L235A)
heavy: B1 heavy
light 1: B1 light 1 with G51S, A55P, T56H
light 2: B1 light 2
notes: as for B3
B5: AB73L3-1/N (bispecific antibody, human IgG1, kappa, lambda, L234A L235A)
heavy: B1 heavy
light 1: B1 light 1 with G51S, S52N, A55P, T56H, K95R, H97Y
light 2: B1 light 2
notes: as for B3

Each binder was assayed against T1, human CEACAM1 (assay: flow cytometry, transfected PEAK cells).
Description: (§1) Vectors encoding the full-length version of human CEACAM 1, 3, 4, 5, 6, 7, 8, 18, 19, 20 and 21 and 20 are used to express these proteins at the surface of PEAK and/or CHO cells as described in Example 1. Similarly, vectors encoding the full-length version of cyno CEACAM 5 and 6 are also used to express these proteins at the surface of PEAK and/or CHO cells. Non-transfected PEAK and/or CHO cells are used as negative control. Cells are harvested, counted, checked for viability and resuspended at 3×10⁶ cells/ml in FACS buffer (PBS 2% BSA, 0.1% NaN₃). 100 μl of the cell suspension are distributed in V-bottom 96-well plates (3×10⁵ cells/well). The supernatant is removed by centrifugation 3 minutes at 4° C., 1300 rpm and the cells incubated for 15 minutes at 4° C. with increasing concentrations of the antibody according to the invention. The antibodies carrying the anti-CEACAM5 arms to test are diluted in FACS buffer and the concentration range is 30 pM-500 nM. Cells are washed twice with cold FACS buffer and re-incubated for further 15 minutes at 4° C. with a compatible anti-human IgG secondary antibody. Cells are washed twice with cold FACS buffer and resuspended in 300 μl FACS buffer with 1:1500-diluted TOPRO-3 (Invitrogen). Fluorescence is measured using a FACSCalibur™ (BD Biosciences) or a Cytoflex Platform (Beckman Coulter). Dose-response binding curves are fitted using GraphPad Prism8 software. In the same manner, CEACAM1, CEACAM6 and other CEACAMs can be characterized.
For the bispecific antibodies AB17L3-1/N, AB71L3-1/N, AB72L3-1/N, AB73L3-1/N the MFI measured for binding to CEACAM5 transfected cells was found between 29000 and 41000 (Table 2). In contrast MFI found by using PEAK cells transfected with CEACAM 1,3,4,6,8 were found below 1000 with the only exception of a strong signal for AB72L3-1/N on CEACAM8 transfected cells. When MFI values obtained on transfected cells expressing any given CEACAM are divided by the values obtained on WT PEAK cells, “factors to PEAK WT” can be calculated (Table 3).

Row | Binder | binding result
1 | B1 | no binding (tested: 10 mcg/ml)
2 | B2 | no binding (tested: 10 mcg/ml)
3 | B3 | no binding (tested: 10 mcg/ml)

What follows are binders tested against T2, human CEACAM6 (assay: flow cytometry, MFI on transfected PEAK cells divided by MFI on WT PEAK cells).
Procedure: as §1, with “Similarly,” for “Vectors encoding the full-length version of human CEACAM 1, 3, 4, 5, 6, 7, 8, 18, 19, 20 and 21 and 20 are used to express these proteins at the surface of PEAK and/or CHO cells as described in Example 1. Similarly,”
(§2) For the bispecific antibodies AB17L3-1/N, AB71L3-1/N, AB72L3-1/N, AB73L3-1/N the MFI measured for binding to CEACAM5 transfected cells was found between 29000 and 41000 (Table 2). In contrast MFI found by using PEAK cells transfected with CEACAM 1,3,4,6,8 were found below 1000 with the only exception of a strong signal for AB72L3-1/N on CEACAM8 transfected cells. When MFI values obtained on transfected cells expressing any given CEACAM are divided by the values obtained on WT PEAK cells, “factors to PEAK WT” can be calculated (Table 3). With the exception of AB72L3-1/N, the antibodies of the invention are all specific to CEACAM5, as the “factor to PEAK WT” values are all below 2.0.

Row | Binder | Factor to PEAK WT [fold]
4 | B1 | 1
5 | B2 | 0.8
6 | B4 | 1
7 | B3 | 1.2
8 | B5 | 1

These binders were tested against T3, human CEACAM8 in the same assay as above.
Procedure: as §1, with “Similarly,” for “Vectors encoding the full-length version of human CEACAM 1, 3, 4, 5, 6, 7, 8, 18, 19, 20 and 21 and 20 are used to express these proteins at the surface of PEAK and/or CHO cells as described in Example 1. Similarly,”
as §2

Row | Binder | Factor to PEAK WT [fold]
9 | B1 | 0.8
10 | B2 | 0.7
11 | B4 | 0.9
12 | B3 | 13.1
13 | B5 | 0.8
